Test results taken from patent publication US20220380426A1.

Target: IL-27 receptor (on BL-2 cells) (human) (UniProt Q6UWB1)
Assay: cell-based or functional assay

Chain of IL-27 receptor (on BL-2 cells) (human) (Q6UWB1 33-636, chain 1 of 2): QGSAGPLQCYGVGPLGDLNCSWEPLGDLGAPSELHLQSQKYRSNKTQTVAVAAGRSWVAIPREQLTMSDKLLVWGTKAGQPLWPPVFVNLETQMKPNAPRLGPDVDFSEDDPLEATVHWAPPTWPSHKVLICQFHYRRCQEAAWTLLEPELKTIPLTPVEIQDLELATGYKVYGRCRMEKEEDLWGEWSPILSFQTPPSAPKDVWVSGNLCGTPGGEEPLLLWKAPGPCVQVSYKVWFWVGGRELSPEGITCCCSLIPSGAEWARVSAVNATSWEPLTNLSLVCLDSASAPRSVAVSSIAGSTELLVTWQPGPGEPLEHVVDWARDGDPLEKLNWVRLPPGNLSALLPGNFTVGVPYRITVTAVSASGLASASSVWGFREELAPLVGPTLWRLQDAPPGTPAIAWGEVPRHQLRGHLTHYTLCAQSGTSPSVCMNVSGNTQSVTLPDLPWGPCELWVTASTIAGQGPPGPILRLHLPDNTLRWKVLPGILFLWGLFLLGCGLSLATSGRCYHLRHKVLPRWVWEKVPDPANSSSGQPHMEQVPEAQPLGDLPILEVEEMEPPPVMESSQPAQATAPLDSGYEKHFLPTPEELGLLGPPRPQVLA
Chain of IL-27 receptor (on BL-2 cells) (human) (P40189 23-918, chain 2 of 2, further chain): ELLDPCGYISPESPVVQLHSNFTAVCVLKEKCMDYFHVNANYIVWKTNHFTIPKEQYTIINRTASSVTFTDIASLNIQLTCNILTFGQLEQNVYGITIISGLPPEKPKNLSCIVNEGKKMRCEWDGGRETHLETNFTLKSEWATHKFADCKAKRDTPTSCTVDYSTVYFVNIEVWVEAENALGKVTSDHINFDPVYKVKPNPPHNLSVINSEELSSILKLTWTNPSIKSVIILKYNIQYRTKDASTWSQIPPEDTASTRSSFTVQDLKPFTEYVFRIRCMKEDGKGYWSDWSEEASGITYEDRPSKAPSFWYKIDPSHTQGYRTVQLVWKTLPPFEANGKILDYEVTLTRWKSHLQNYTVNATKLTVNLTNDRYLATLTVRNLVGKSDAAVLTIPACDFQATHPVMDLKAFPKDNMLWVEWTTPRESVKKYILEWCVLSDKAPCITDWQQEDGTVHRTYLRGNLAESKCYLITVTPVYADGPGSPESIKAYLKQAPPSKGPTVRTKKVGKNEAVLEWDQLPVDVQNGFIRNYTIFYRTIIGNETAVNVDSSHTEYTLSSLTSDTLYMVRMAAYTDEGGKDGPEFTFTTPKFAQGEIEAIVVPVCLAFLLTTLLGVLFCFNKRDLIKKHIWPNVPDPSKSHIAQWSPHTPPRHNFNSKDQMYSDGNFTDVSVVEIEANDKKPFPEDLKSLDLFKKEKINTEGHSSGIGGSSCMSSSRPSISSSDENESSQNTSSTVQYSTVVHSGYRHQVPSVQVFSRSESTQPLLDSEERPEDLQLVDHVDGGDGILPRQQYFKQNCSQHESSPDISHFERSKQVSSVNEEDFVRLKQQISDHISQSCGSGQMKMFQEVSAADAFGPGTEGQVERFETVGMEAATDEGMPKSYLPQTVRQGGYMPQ

IL-27alpha^L162C,T238A,S240A (mutein of the alpha-subunit of human Interleukin 27) (from UniProt Q8NEV9 29-243) (ligand)
STAT1 activation (immunoblotting against phosphorylated STAT1), BL-2 cells, 60 minutes, 1000 ng/mL (fold over IL-27alpha^L162C): 8.5
